Laboratory results published in patent US20260258083A1 (Amgen, published 2026).
Where no end group is shown, it is not given here. [ ]: non-standard residue; d: D form. pGlu = O=C1CC[C@@H](C(=O)O)N1

B1: pE-DGNEELK (peptide)
peptide: [pGlu]DGNEELK
notes: Position 1 is written E for pE; also called CD3ε peptide

Tests used:
[1] = target: T1, FLT3xCD3 TCE SEQ ID NO 93; test: KinExA equilibrium in solution, KD relative to peptide concentration, TCE 125 pM
T1 construct: Single-chain scFv-scFv-scFc T cell engager; also called FLT3×CD3ε TCE; FLT3_7 A8xCD3-scFc Bispecific HLE molecule

[2] = target: T1, FLT3xCD3 TCE SEQ ID NO 93; test: KinExA equilibrium in solution, KD relative to peptide concentration, TCE 250 pM; alias in this row reads 20 k Linear Thioether
scFv region of I2C = target: T2, scFv region of I2C; test: co-crystal structure used as input for the modelling
T2 construct: also called VH-VL of I2C

Binder	Kd [1]	Kd [2]	binding result (scFv region of I2C)
[pGlu]DGNEELKGK-OH (also: Lys 10 side chain linked via thioether (acetamide) to 4-arm 20 kDa PEG, TCE masking molecule) [73135-2]	0.0122 nM	0.153 nM	
B1			binds
